# B1: MCM8-9 complex (FLAG-tagged MCM8 and MBP-tagged MCM9), wild type (complex)
# chain 1: MNGEYRGRGFGRGRFQSWKRGRGGGNFSGKWREREHRPDLSKTTGKRTSEQTPQFLLSTKTPQSMQSTLDRFIPYKGWKLYFSEVYSDSSPLIEKIQAFEKFFTRHIDLYDKDEIERKGSILVDFKELTEGGEVTNLIPDIATELRDAPEKTLACMGLAIHQVLTKDLERHAAELQAQEGLSNDGETMVNVPHIHARVYNYEPLTQLKNVRANYYGKYIALRGTVVRVSNIKPLCTKMAFLCAACGEIQSFPLPDGKYSLPTKCPVPVCRGRSFTALRSSPLTVTMDWQSIKIQELMSDDQREAGRIPRTIECELVHDLVDSCVPGDTVTITGIVKVSNAEEGSRNKNDKCMFLLYIEANSISNSKGQKTKSSEDGCKHGMLMEFSLKDLYAIQEIQAEENLFKLIVNSLCPVIFGHELVKAGLALALFGGSQKYADDKNRIPIRGDPHILVVGDPGLGKSQMLQAACNVAPRGVYVCGNTTTTSGLTVTLSKDSSSGDFALEAGALVLGDQGICGIDEFDKMGNQHQALLEAMEQQSISLAKAGVVCSLPARTSIIAAANPVGGHYNKAKTVSENLKMGSALLSRFDLVFILLDTPNEHHDHLLSEHVIAIRAGKQRTISSATVARMNSQDSNTSVLEVVSEKPLSERLKVVPGETIDPIPHQLLRKYIGYARQYVYPRLSTEAARVLQDFYLELRKQSQRLNSSPITTRQLESLIRLTEARARLELREEATKEDAEDIVEIMKYSMLGTYSDEFGNLDFERSQHGSGMSNRSTAKRFISALNNVAERTYNNIFQFHQLRQIAKELNIQVADFENFIGSLNDQGYLLKKGPKVYQLQTM
# chain 2: not shown
# notes: MCM8, human; vector pFB-FLAG-MCM8; MCM9, human; vector pFB-MBP-MCM9; Major species is a heterodimer; tetramers and hexamers are also present; also called MCM8-9 heterodimer; dimer-rich MCM8-9; source: MBP tag not cleaved; for the amylose pull-down captured from Sf9 lysate on amylose resin and washed; not shown: FLAG, N-terminal, kept; MBP, N-terminal, kept
# How the values were obtained:
# [1] = biological target: the molecule itself; assay: mass photometry; protein alone in solution, no DNA; 50-200 nM final protein in 50 mM Tris-HCl pH 7.5, 100 mM NaCl; oligomeric state of MCM8-9 unchanged with ATP-γ-S
# [2] = biological target: B1; assay: pull-down; MBP-MCM9/FLAG-MCM8 (or pMCM8-9, with or without λ-phosphatase treatment on the resin) immobilized on amylose resin from Sf9 lysate and washed; 1 µg wild type or mutant HROB in 50 mM Tris-HCl pH 7.5, 3 mM EDTA, 100 mM NaCl, 1 h at 4 °C; maltose elution, western blotting; conditions: both partners purified
Binder,binding result [1],binding result [2]
B1,binds,
"HROB-L405D (natural protein, human, UniProt Q8N3J3-4 1-646, looked up, HROB, human; numbers count on: isoform 1 (Q8N3J3-1); not shown: FLAG, C-terminal, kept) MACSLQKLFAVEEEFEDEDFLSAVEDAENRFTGSLPVNAGRLRPVSSRPQETVQAQSSRLLLLHPTAPSEALGLPDLDLCLPASSTPSADSRPSCIGAAPLRPVSTSSSWIGNQRRVTVTEVLREPARPQSSALHPLLTFESQQQQVGGFEGPEQDEFDKVLASMELEEPGMELECGVSSEAIPILPAQQREGSVLAKKARVVDLSGSCQKGPVPAIHKAGIMSAQDESLDPVIQCRTPRPPLRPGAVGHLPVPTALTVPTQQLHWEVCPQRSPVQALQPLQAARGTIQSSPQNRFPCQPFQSPSSWLSGKAHLPRPRTPNSSCSTPSRTSSGLFPRIPLQPQAPVSSIGSPVGTPKGPQGALQTPIVTNHLVQLVTAASRTPQQPTHPSTRAKTRRFPGPAGIDPHQQSGRSLEDIMVSAPQTPTHGALAKFQTEIVASSQASVEEDFGRGPWLTMKSTLGLDERDPSCFLCTYSIVMVLRKAALKQLPRNKVPNMAVMIKSLTRSTMDASVVFKDPTGEMQGTVHRLLLETCQNELKPGSVLLLKQIGVFSPSLRNHYLNVTPNNLVHIYSPDSGDGSFLKPSQPFPKDSGSFQHDVAAKPEEGFRTAQNLEAEASPEEELPEADDLDGLLSELPEDFFCGTSS",,binds
